Experimental findings from patent US20250197513A1 (University of Texas, published 2025) are described below.

B1: B08 monoclonal antibody (antibody, V domains shown)
VH: QVQLVQSGGGLVKPGGSLRLSCAASGFTFSSYSMNWVRQAPGKGLEWVSSISSSSSYIYYADSVKGRFTISRDNAKNSLYLQMNSLRAEDTAVYYCARDIALPYYGMDVWGQGTMVTVSS
VL: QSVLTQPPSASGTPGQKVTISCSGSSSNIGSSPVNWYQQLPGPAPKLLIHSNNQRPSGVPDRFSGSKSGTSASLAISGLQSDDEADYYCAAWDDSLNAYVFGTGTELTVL
notes: also called B08 mAb
B2: B17 monoclonal antibody (antibody, V domains shown)
VH: QVELQESGPGLVQPSGTLSLTCAVSGGSMGSSNWWSWVRQPPGKGLEWIGEVYHTGSTNYNPSLRSRVTISVDKSKKQFSLELTSVTAADTAVYFCARDLTVTGSFDIWGQGTMVTVSS
VL: QAVVTQPRSVSGSPGQSVTISCTGSSSDVGAYNYVSWYQQHPGKAPKLIISDVSDWPSGVPDRFSGSKSGNTASLTISGLQADDEADYYCFSYAGNYNWVFGGGTKLTVL
notes: also called B17 mAb
B3: B04 monoclonal antibody (antibody, V domains shown)
VH: EVQLVQSGGGVVQPGRSLRLSCAASGFTFSSYAMHWVRQAPGKGLEWVAVISYDGSNKYYADSVKGRFTISRDNSKNTLYLQMNSLRAEDTAVYYCARESGVSGDYYYYGMDVWGQGTMVTVSS
VL: AIQLTQSPSSLSASVGDRVTITCQASQDIKNYLNWYQQRPGKAPKLLIYDASNLETGVPSRFSGGGSGTDFTFTISSLQPEDIATYYCQHYDSLPITFGQGTRLEIK
notes: also called B04 mAb
B4: H16 monoclonal antibody (antibody, V domains shown)
VH: QVQLLQSGAEVKKPGSSVKVSCKASGGTFSSYAISWVRQAPGQGLEWMGGIIPIFGTANYAQKFQGRVTITADESTSTAYMELSSLRSEDTAVYYCASSYYGSGTTWFDPWGQGTLVTVSS
VL: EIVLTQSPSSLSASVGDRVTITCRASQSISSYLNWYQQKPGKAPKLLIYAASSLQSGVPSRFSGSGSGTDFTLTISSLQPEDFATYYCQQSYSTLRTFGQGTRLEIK
notes: also called H16 mAb
B5: B06 monoclonal antibody (antibody, V domains shown)
VH: QVQLVESGGGLVQPGRSLRLSCAASGFTFDDYAMHWVRQAPGKGLEWVSGISWNSGSIGYADSVKGRFTISRDNAKNSLYLQMNSLRAEDTALYYCAKDITSSGWYWFDYWGQGTLVTVSS
VL: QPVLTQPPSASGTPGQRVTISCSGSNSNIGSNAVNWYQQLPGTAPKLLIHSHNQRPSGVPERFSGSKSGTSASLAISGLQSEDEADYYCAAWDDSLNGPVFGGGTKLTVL
notes: also called B06 mAb
B6: B01 monoclonal antibody (antibody, V domains shown)
VH: QVQLVQSGAEVKKPGASVKVSCKASGYSFTSYFIHWVRQAPGQGLEWMGIINPAGGNTNYAQRFQGRVTMTRDTSTSTVYMELSSLRSDDTAVYYCARDKDYGEGAFDLWGQGTMVSVSS
VL: QSALTQPPSVSGAPGQRVTISCTGSSSNIGAGYDVHWYQQLPGTAPKLLIYGNSNRPSGVPDRFSGSKSGTSASLAITGLQAEDEADYYCQSYDSSLSGWVFGGGTKVTVL
notes: also called B01 mAb
B7: B09 monoclonal antibody (antibody, V domains shown)
VH: QVQLVQSGAEVKKPGSSVKVSCKTSGGTFSSYAISWVRQAPGQGLEWMGGIIPISGTANYAQKLQGRVTITADESTSTAYMELSSLRSEDTAVYYCGRGDYCNGGSCSYTNYYGMDVWGQGTMVTVSS
VL: QAVVTQPPSASGTPGQRSTISCSGGSANIGSNSVHWYQQFPGTAPKLLIFNNNQRPSGVPDRFSGSKSGTSASLAISGLQSEDEADYFCAAWDDSLKGPVFGGGTKVTVL
notes: also called B09 mAb
B8: B13 monoclonal antibody (antibody, V domains shown)
VH: EVQLVQSGAEVKKPGSSVKVSCKASGGTFSSYAITWVRQAPGQGLEWMGGIIPIVGTANYAQKFQGRLTITADESTSTAYMELSSLRSEDTAVYYCARGDYCSGGSCSYTNYYGMDVWGQGTTVTVSS
VL: not shown
notes: also called B13 mAb
B9: H12 monoclonal antibody (antibody, V domains shown)
VH: EVQLVQSGAEVKKPGSSVKVSCKTSGGTFSSYAISWVRQAPGQGLEWMGGIIPISGTANYPQKLQGRVTITADESTSTAYMELSSLRSEDTAMYYCARGDYCNGGSCSYTNYYGMDVWGQGTTVIVSS
VL: QSALTQPPSVSVAPGKTAMITCGGTNIRSQNVHWYQQKPGQAPVLVIYWDSSRPSGIPERISGSNSGSTATLTISRVEAGDEADYYCQVWDATRDHVVFGGGTKVTVL
notes: also called H12 mAb
B10: B12 monoclonal antibody (antibody, V domains shown)
VH: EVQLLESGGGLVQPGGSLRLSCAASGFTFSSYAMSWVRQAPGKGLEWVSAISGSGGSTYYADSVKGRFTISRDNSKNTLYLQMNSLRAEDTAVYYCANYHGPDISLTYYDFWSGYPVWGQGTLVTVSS
VL: QSALTQPHSVSESPGKTVTISCTRSSGSIANNHVQWYQQRPGSAPIIVIYEDNQRPSGVPDRFSGSIDSSSNSASLTLSGLKTEDEAAYYCQSYDDNNWVFGGGTKVTVL
notes: also called B12 mAb
B11: H11 monoclonal antibody (antibody, V domains shown)
VH: EVQLVQSGPEVRKPGASVQISCKASGYTFTTSYIHWVRQAPGQGLEWLGLVNPNDGSTTYTQNFQGRVTMTSDTSTSTVYMELSRVTYADTAVYYCAKDIRDYVWGTYRYESAFDIWGQGTTVTVSS
VL: QAVVTQPPSVSVSPGQTASITCSGDKLGDKYVSWYQQKPGQPPILVMYQDNRRPSGIPERFSGSNSGNTATLTISGTQAMDEADYYCQTWDSSTASYVFGTGTKVTVL
notes: also called H11 mAb
B12: B10 monoclonal antibody (antibody, V domains shown)
VH: QVQLVQSGAEVKKPGASVKVSCKASGYTFTSYYMHWVRQAPGQGLEWMGIINPSGGSTSYAQKFQGRVTMTRDTSTSTVYMELSSLRSEDTAVYYCARDKAHDSSGYYDAFDIWGQGTTVTVSS
VL: QSALTQPPSASGTPGQRVTISCSGSGSNIGSNTVNWYQQLPGTAPRLLIYRNNQRPSGVPDRFSGSKSGTSASLAISGLESEDEADYFCATWDDSLNDYVFATGTQLTVL
notes: also called B010; B10 mAb
B13: B19 monoclonal antibody (antibody, V domains shown)
VH: QVELVESGGGLVQPGRSLRLSCAASGFTFDDYAMHWVRQAPGKGLEWVSGISWNSGSIGYADSVKGRFTISRDNAKNSLYLQMNSLRAEDTALYYCAKDIGVYYYGMDVWGQGTTVSVSS
VL: QSALTQPPSASGTPGQKVTISCSGSSSNIGSSPVNWYQQFPGPAPKLLIHSNNQRPSGVPDRFSGSKSGTSASLAISGLQSDDEADYYCAAWDDSLNAYVFGTGTKVTVL
notes: also called B19 mAb
B14: H14 monoclonal antibody (antibody, V domains shown)
VH: QVQLVQSGAEVKKPGSSVKVSCKASGGTFSSYAISWVRQAPGQGLEWMGGIIPIFGTANYAQKFQGRVTITADESTSTAYMELSSLRSEDTAVYYCAREATPFMILGAFDIWGQGTMVIVSS
VL: not shown
notes: also called H14 mAb
B15: H10 monoclonal antibody (antibody, V domains shown)
VH: QVQLVQSGAEVKKPGASVKVSCKASGYTFTSYYMHWVRQAPGQGLEWMGIINPSGGSTSYAQKFQGRVTMTRDTSTSTVYMELSSLRSEDTAVYYCARGTTYDAFDIWGQGTTVSVSS
VL: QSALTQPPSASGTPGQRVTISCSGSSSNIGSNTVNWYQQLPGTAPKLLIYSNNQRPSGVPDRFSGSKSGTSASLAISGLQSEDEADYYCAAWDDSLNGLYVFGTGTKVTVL
notes: also called H10 mAb
B16: H09 monoclonal antibody (antibody, V domains shown)
VH: EVQLVQSGAEVKKPGASVKVSCKASGYTFTGYYMHWVRQAPGHGLEWMGWINPNSGGTNYAQKFQGRVTMTRDTSISTAYMELSGLRSDDTAVYYCARDKGAWSGSYPGYNWFDPWGQGTLVTVSS
VL: QAVVTQPPSASGTPGQRVTISCSGSSSTIGTNPVNWYRHLPGTAPKLLIYSNNQRPSGVPDRVSGSKSGTSASLAISGLQSEDEADYYCATLDDSLNGYVFGTGTKVTVL
notes: also called H09 mAb
B17: H13 monoclonal antibody (antibody, V domains shown)
VH: QVQLVQSGAEVKKPGASVKVSCKVSGYSFSSHGISWVRQAPGQGLEWMGWISAYNGNTNYAQNLQGRVRMTTDTSTNTAHMELRSLRSDDTAVYYCARDQDEANWNNNYYFDYWGQGTLVTVSS
VL: NFMLTQPHSVSESPGKTVTISCTGSSGSIASKYVQWYQQRPGSAPTSVIYEDNQRPSGVPDRFSGSIDRSSNSASLTISGLKTEDEADYHCQSYDSANRVVFGGGTKVTVL
notes: also called H13 mAb
B18: B02 monoclonal antibody (antibody, V domains shown)
VH: QVELQESGSGLVKPSQTLSLTCAVSGGSISSGGYSWSWIRQPPGKGLEWIGYIYHSGSTYYNPSLKSRVTISVDRSKNQFSLKLSSVTAADTAVYYCARELGYCSSTSCPWGAFDIWGQGTLVSVSS
VL: QAVVTQPPSVSAAPGQKVTISCSGSSSNIGNNYVSWYQQLPGTAPKLLIYDNNKRPSGIPDRFSGSKSGTSATLGITGLQTGDEADYYCGTWDSSLSAVVFGGGTQLTVL
notes: also called B02 mAb
B19: B05 monoclonal antibody (antibody, V domains shown)
VH: QVQLVESGGGVVRPGGSLRLSCAASGFTFDDYGMSWVRQAPGKGLEWVSGINWNGGSTGYADSVKGRFTISRDNAKNSLYLQMNSLRAEDTALYHCARVNYDSSGLRGAFDIWGQGTTVTVSS
VL: AIQLTQSPSSLSASVGDRVTITCQASQDISNYLNWYQQKPGKAPKLLIYDASNLETGVPSRFSGSGSGTDFTFTISSLQPEDIATYYCQQYDNLPTFGQGTRLEIK
notes: also called B05 mAb
B20: B03 monoclonal antibody (antibody, V domains shown)
VH: QVQLVESGGGVVRPGGSLRLSCAASGFTFDDYGMSWVRQAPGKGLEWVSGINWNGGSTGYADSVKGRFTISRDNAKNSLYLQMNSLRAEDTALYHCARVNYDSSGLRGAFDIWGQGTMVIVSS
VL: DIVMTQSPSSLSASVGDRVTITCQASQDISNYLNWYQQKPGKAPKLLIYDASNLETGVPSRFSGSGSGTDFTFTISSLQPEDIATYYCQQYDNLPITFGQGTRLEIK
notes: also called B03 mAb
B21: B16 monoclonal antibody (antibody, V domains shown)
VH: QVELVESGGGVVRPGGSLRLSCAASGFTFDDYGMSWVRQAPGKGLEWVSGINWNGGSTGYADSVKGRFTISRDNAKNSLYLQMNSLRAEDTALYHCARVNYDSSGLRGAFDIWGQGTTVTVSS
VL: DVQMTQSPSSLSASVGDRVTITCQASQDISNYLNWYQQKPGKAPKLLIYDASNLETGVPSRFSGSGSGTDFTFTISSLQPEDIATYYCQQYDNLPTFGQGTRLEIK
notes: also called B016; B16 mAb

This experiment has as its target T1, recombinant OSMR protein (Sino Biologicals, 11226-H08H), extracellular domain of OSMR (UniProt Q99650 28-740).
T1 construct: extracellular domain; also called OSMR antigen
T1 sequence (looked up): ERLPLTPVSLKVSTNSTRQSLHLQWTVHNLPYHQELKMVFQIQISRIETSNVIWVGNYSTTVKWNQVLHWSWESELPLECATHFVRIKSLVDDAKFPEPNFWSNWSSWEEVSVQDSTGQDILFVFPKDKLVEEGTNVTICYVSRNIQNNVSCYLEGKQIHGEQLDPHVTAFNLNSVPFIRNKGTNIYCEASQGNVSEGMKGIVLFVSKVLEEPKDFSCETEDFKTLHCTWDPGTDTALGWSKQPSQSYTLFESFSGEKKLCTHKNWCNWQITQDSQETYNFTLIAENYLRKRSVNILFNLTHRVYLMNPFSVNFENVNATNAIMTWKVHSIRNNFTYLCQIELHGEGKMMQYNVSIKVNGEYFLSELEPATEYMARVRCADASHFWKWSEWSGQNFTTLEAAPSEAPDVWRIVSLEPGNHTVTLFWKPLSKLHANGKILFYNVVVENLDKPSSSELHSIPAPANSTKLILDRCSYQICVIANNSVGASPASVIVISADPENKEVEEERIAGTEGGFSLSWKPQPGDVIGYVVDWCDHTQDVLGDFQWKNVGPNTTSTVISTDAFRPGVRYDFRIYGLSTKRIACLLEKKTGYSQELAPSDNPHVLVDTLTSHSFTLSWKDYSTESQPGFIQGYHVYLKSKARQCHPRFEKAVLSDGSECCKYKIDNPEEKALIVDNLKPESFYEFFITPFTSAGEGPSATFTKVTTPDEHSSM
The experiment can be described thus: screening of full-length IgG1 clones on recombinant OSMR extracellular domain.
On to B1, for which the binding result is “binds”.

Turning to B2, the binding result is “binds”.

For the molecule B3, the binding result is listed as “binds”.

Turning to B4, the binding result is “binds”.

As to B5, the binding result is listed as “binds”.

On to B6, for which the binding result is listed as “binds”.

B7: the binding result was “binds”.

As to B8, the binding result is recorded as “binds”.

In the case of B9, the binding result is on record as “binds”.

For B10, the binding result was “binds”.

Consider B11, for which the binding result was “binds”.

For the molecule B12, the binding result was “binds”.

In the case of B13, the binding result is “binds”.

Take B14: the binding result is recorded as “binds”.

Consider B15, for which the binding result was “binds”.

Regarding B16, the binding result is “binds”.

As for B17, the binding result is “binds”.

For the molecule B18, the binding result is given as “binds”.

As to B19, the binding result is on record as “binds”.

Regarding B20, the binding result was “binds”.

B21: the binding result was “binds”.
